Target: nucleosome N(13,91) (chicken)
Experiment: single-particle FRET

- content of PARP1-nucleosome complexes at 50 nM PARP1: 45%
Substance: poly(ADP-ribose) polymerase 1 (from UniProt P09874 1-1014) (enzyme)

— article PMC8867921
